B1: Monoclonal antibody 24F12.B1 (antibody, mouse IgG1, V domains shown)
VH: SGGGLVRPGGSLKLSCAASGFTFSSYAMSWVRQSPEKRLEWVAEIGSGGSYTYYPDTVTGRFTISRDNAKSTLYLEMSSLRSEDTAIYYCARETTAGYFDYWGQGTTLTVSS
VL: TSSLSASLGDRVTISCSASQGINNFLNWYQQKPDGTVKLLIYYTSSLHSGVPSRFSGSGSGTDYSLTISNLEPEDIAIYYCQHFSKLPWTFGGGTKLEIKR
notes: also called ATCC PTA-11886
B2: Monoclonal antibody 26B3.F2 (antibody, mouse IgG1, V domains shown)
VH: GPELVKPGASVKISCKASDYSFTGYFMNWVMQSHGKSLEWIGRIFPYNGDTFYNQKFKGRATLTVDKSSSTAHMELRSLASEDSAVYFCARGTHYFDYWGQGTTLTVSS
VL: PASLSASVGETVTITCRTSENIFSYLAWYQQKQGISPQLLVYNAKTLAEGVPSRFSGSGSGTQFSLKINSLQPEDFGSYYCQHHYAFPWTFGGGSKLEIKR
notes: also called MAb 26B3; ATCC PTA-11885
B3: Monoclonal antibody 19D4.B7 (antibody, mouse IgG2a, V domains shown)
VH: GAELVKPGASVKLSCTASGFNIKHPYMHWVKQRPDQGLEWIGRIDPANGNTKYDPKFQGKATITADTSSNTAYLQLSSLTSEDTAVYYCGREEVADYTMDYWGQGTSVTVSS
VL: PASLAVSLGQRATISCRASESVDTYGNNFIHWYQQKPGQPPKLLIYLASNLESGVPARFSGSGSRTDFTLTIDPVEADDAATYYCQQNNGDPWTFGGGTKLEIKR
notes: It was labelled with Ru (about 13 labels per IgG) when used as the detector in the ECL assays; also called ATCC PTA-11884
B4: Monoclonal antibody 9F3.H9.H3.H3.B5.G2 (antibody, mouse IgG2a, V domains shown)
VH: ESGPGLVRPSQSLSLTCSVTGYSITSGYYWNWIRQFPGSRLEWMGYIKSDGSNNYNPSLKNRISITRDTSKNQFFLKLNSVTTEDTATYFCTREWKAMDYWGQGTSVTVSS
VL: PAIMSASPGEKVTMTCRASSTVSYSYLHWYQQKSGASPQLWIYGTSNLASGVPARFSGSGSGTSYSLTISSVEAEDAATYYCQQYSGYPLTFGAGTKLELKR
notes: also called ATCC PTA-11887

Biological target: T1, human FRα expressed on CHO cells (GPI-linked) (human, UniProt P15328 25-234)
T1 construct: CHO/CHOK1 cells stably expressing GPI-linked human FRα; They were used intact in flow cytometry and as nonreduced whole cell lysates in the western blots; also called native FRα; CHO-FRα
T1 sequence (P15328 25-234 limits assumed): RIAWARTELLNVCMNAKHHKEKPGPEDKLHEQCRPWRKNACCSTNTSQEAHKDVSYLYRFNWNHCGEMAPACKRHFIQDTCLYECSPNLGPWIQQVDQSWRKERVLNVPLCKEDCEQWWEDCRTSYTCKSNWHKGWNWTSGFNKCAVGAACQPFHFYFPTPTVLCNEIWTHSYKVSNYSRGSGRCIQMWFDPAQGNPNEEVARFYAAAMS
Assay: flow cytometry on CHO cells expressing FRα, antibody 1 µg/mL, FITC secondary
Protocol: Flow cytometry studies were conducted to assess the ability of selected FRα-specific antibodies to bind to the native protein. For these studies Chinese hamster ovary (CHO) cells expressing FRα, were harvested, washed, and re-suspended in ice-cold growth media (RPMI supplemented with 10% FBS). Cells were incubated for 1 hour on ice with 9F3, 19D4, 24F12, or 26B3 (1 μg/mL), washed and then incubated with FITC-conjugated secondary antibodies [dilution 1:100] (Southern Biotech, Birmingham, Ala.). Prior to analysis, cells were labeled with 7-amino-actinomycin D (7-AAD) (BD Biosciences, Franklin Lakes, N.J.) for the exclusion of nonviable cells. CHO cells not expressing FRα were also subjected to the same experimental procedures, as a negative control. Cells were analyzed on an […]™ Flow Cytometer (GUAVA® Technologies, Hayward, Calif.). The data provided in Table 4 indicate that all four antibodies are capable of binding native FRα.

Geometric Mean	Binder
777	B1
854	B2
1130	B3
760	B4

Biological target: T2, purified recombinant human folate receptor alpha (rh-FRα) (human, UniProt P15328 25-234)
T2 construct: One is secreted from CHO cells, with a human Ig kappa leader and a C-terminal 6x His tag replacing the GPI attachment site; The other is from Sf9 cells, with an N-terminal 6x His tag and the GPI site intact; also called FR-alpha; FOLR1
T2 sequence (P15328 25-234 limits assumed): as above
Assay: SPR, BIACORE T100, antibody captured on anti-mouse IgG, rh-FRα 1-30 nM as analyte, single-cycle kinetics, 1:1 fit
Protocol: Binding characteristics of the purified monoclonal antibodies to FRα were determined by surface plasmon resonance (SPR) experiments. All of the SPR experiments were performed at 25° C. using a BIACORE™ T100 with research grade CM5 chips (GE Healthcare), as specified by the manufacturer. Initially, anti-mouse IgG provided in the mouse antibody capture kit (GE Healthcare) was immobilized by amide coupling to CM5 sensor chips. Mouse anti-FRα monoclonal antibodies (26B3, 24F12, 19D4, or 9F3) were captured on individual flow cells per binding cycle, while the fourth flow cell was used as a reference. Binding experiments were performed with HBS-P (GE Healthcare) as running buffer and at a flow rate of 30 μL/min. Each monoclonal antibody sample (0.5 μg/mL) was injected for 3 minutes to capture the antibody. Various concentrations of purified recombinant human FRα (rh-FRα) (1 nM-30 nM) were then injected over the FRα-specific and reference surfaces for 3 minutes to record binding sensograms using a single-cycle kinetics method. The dissociation profile was monitored for 25 minutes. In between bindings, the surface was regenerated with a 30 μl injection of 10 mM glycine (pH 1.7). The sensograms were processed and fitted to a 1:1 Langmuir binding model using BIACORE™ T100 evaluation software (version 2.0.1).

Kd	koff	kon	Binder
0.102 nM	3.99e-05 s⁻¹	393000 M⁻¹ s⁻¹	B1
0.0273 nM	1.43e-05 s⁻¹	524000 M⁻¹ s⁻¹	B2
0.567 nM	0.000242 s⁻¹	427000 M⁻¹ s⁻¹	B3
0.715 nM	0.00031 s⁻¹	434000 M⁻¹ s⁻¹	B4

Biological target: T3, human folate receptor beta (FRβ) expressed on CHO cells (human, UniProt P14207 17-230)
T3 construct: whole, on cells; also called CHO-FRβ
T3 sequence (P14207 17-230): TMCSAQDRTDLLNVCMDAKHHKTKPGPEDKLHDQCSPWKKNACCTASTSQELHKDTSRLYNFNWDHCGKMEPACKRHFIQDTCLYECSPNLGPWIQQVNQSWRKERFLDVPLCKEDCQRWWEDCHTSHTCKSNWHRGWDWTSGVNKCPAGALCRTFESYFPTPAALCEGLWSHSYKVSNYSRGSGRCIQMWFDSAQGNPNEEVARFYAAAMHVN
Assay: western blot of nonreduced whole cell lysates of CHO cells, SDS-PAGE

binding result	Binder
no binding (tested: 1 µg/mL)	B1
no binding (tested: 1 µg/mL)	B2
no binding (tested: 1 µg/mL)	B4

Biological target: T4, purified recombinant human FRβ
T4 construct: also called human folate receptor beta (purified, secreted form)
T4 sequence (chain, as listed by the source limits assumed): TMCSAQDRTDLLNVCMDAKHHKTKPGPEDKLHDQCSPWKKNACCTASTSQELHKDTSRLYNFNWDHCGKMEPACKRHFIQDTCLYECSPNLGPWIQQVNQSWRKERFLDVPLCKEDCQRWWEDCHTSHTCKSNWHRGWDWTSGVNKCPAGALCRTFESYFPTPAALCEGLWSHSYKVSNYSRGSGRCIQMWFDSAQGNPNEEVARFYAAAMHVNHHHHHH
Assay: western blot of 0.5 µg purified protein per lane, reduced and nonreduced, SDS-PAGE
Protocol: (§1) Experiments were conducted to determine whether any of the FRα-specific antibodies, described above, could recognize denatured forms of FRα. […] Lysates were pre-cleared by centrifugation at 13,000 rpm for 15 minutes to remove debris. For reduced and denatured samples, equal amounts of protein (20 μg) were boiled for 10 minutes in NUPAGE® LDS sample buffer (Invitrogen) containing 5% β-mercaptoethanol+40 mM DTT. […] The membrane was blocked in PBST+ 5% non-fat milk for lh at room temperature after which time, the membrane was washed twice with PBST. Immunoblotting was conducted using purified mouse monoclonal antibodies 9F3, 19D4, 24F12, or 26B3 (1 μg/mL) specific for FRα, which were detected with a goat-anti-mouse HRP-conjugated antibody and visualized using SUPERSIGNAL™ West Pico chemiluminescent substrate (Pierce, Rockford, Ill.). Luminescence was visualized using the Omega 12iC molecular imaging system (Ultra-Lum, Claremont, Calif.) with image analysis performed using ULTRAQUANT™ 6.0 software (Ultra-Lum).
(§2) Western blot analyses were also performed using purified folate receptor preparations. For these experiments, 0.5 μg of purified human FRα, β, Γ or Δ, produced as described in Example 1, were incubated in 1× SDS-PAGE sample loading buffer (Invitrogen) with or without 20 mM DTT, boiled for 10 min, and electrophoresed on 4-12% gradient SDS-PAGE gels. Protein was transferred to PVDF membrane and blots probed as described above. Gels were run using Benchmark™ prestained protein ladder (NOVEX®). Gels using purified recombinant FR proteins were also visualized via silverstaining to ensure equal amounts of protein were loaded.

binding result	Binder
no binding (tested: 1 µg/mL)	B1
no binding (tested: 1 µg/mL)	B2
no binding (tested: 1 µg/mL)	B3
no binding (tested: 1 µg/mL)	B4

Biological target: T5, purified recombinant human FRΓ
T5 construct: also called human folate receptor gamma (purified)
T5 sequence (chain, as listed by the source limits assumed): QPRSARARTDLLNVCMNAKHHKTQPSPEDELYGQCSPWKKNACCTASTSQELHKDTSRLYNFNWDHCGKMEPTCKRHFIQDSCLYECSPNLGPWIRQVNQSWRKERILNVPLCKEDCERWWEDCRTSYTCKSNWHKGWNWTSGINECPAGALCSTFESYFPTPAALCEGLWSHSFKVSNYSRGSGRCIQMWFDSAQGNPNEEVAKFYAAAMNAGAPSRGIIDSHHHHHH
Assay: as above
Protocol: as §1, §2

binding result	Binder
no binding (tested: 1 µg/mL)	B1
no binding (tested: 1 µg/mL)	B2
no binding (tested: 1 µg/mL)	B3

From US20170168078A1 (EISAI R AND D MANAGEMENT, published 2017)
